# Publication PMC6992785, “In cellulo crystallization of Trypanosoma brucei IMP dehydrogenase enables the identification of genuine co-factors” (Nature Communications, 2020)
# Target: the molecule itself
# Assay: crystal structure; serial femtosecond crystallography (XFEL, LCLS CXI) at room temperature (291 K) on crystals grown in living Sf9 cells, isolated and kept in PBS; 2.80 Å; space group P4 21 2, two monomers in the asymmetric unit; native ATP and GMP bound
protein,measurement,value
"Trypanosoma brucei inosine-5'-monophosphate dehydrogenase (enzyme, UniProt P50098 1-512, looked up, Inosine-5'-monophosphate dehydrogenase of Trypanosoma brucei, full length, with its native C-terminal SKL motif (PTS1); Two monomers in the asymmetric unit; the octamer arises by crystal symmetry; also called TbIMPDH; IMPDH; source: Sf9 insect cells infected with recombinant baculovirus; crystallised in cellulo, crystals isolated by cell lysis (RIPA buffer), washed and stored in PBS; not shown: …) MENTNLRTKTLRDGTTAEELFSQDGLSFNDFIILPGFIDFDSSKVNVSGQFTKNILLHLPLVSSPMDTVTESSMARAMALMGGIGVIHNNCTVEQQARMVRSVKLYRNGFIMKPKSVSPDVPVSTIRNIKSEKGISGILVTEGGKYDGKLLGIVCTKDIDFVKDASAPVSQYMTRRENMTVERYPIKLEEAMDVLNRSRHGYLPVLNDKDEVVCLCSRRDAVRARDYPNSSLDRNGHLLCAAATSTREADKGRVAALSEAGIDVLVLDSSQGNTIYQVSFIRWVKKTYPHLEVVAGNVVTQDQAKNLIDAGADSLRIGMGSGSICITQEVLACGRPQATAIYKVARYAASRGVPCVADGGLRNVGDVCKALAVGANVAMLGSMIAGTSETPGEYFFKDGMRLKGYRGMGSIDAMLQGRESGKRYLSENETLQVAQGVAGAVLDKGSVLKLLAYIHKGLQQSAQDIGEVSFDAIREKVYEGQVLFNRRTLTAQSEGAVHSLHHYERKLFASKL",stoichiometry N,8
